Reference: patent US20090162366A1

Assays:
[1] = target: M2TGEK-BSA conjugate (influenza A virus, A/Netherlands/33/03 (H7N7)); assay: peptide-BSA ELISA (++ EC50<10^-9M; + 10^-9M<EC50<10^-8M); settings: remark: other sources report otherwise
[2] = target: M2EG peptide conjugated with BSA (influenza A virus, A/New York/687/1995 (H3N2)); assay: as above; settings: remark: other sources report otherwise
[3] = target: T1, M2PHTGS peptide conjugated with BSA (influenza A virus, A/chicken/HongKong/YU427/03 (H9N2)); assay: as above; settings: remark: other sources report otherwise
[4] = target: M2-BSA conjugate (influenza A virus, A/Hong Kong/1/68 (H3N2)); assay: as above
[5] = target: M2TES peptide conjugated with BSA (influenza A virus, A/Viet Nam/1203/2004 (H5N1)); assay: as above; settings: remark: other sources report otherwise
[6] = target: T2, M2GHTGKS peptide conjugated with BSA (influenza A virus, A/chicken/HongKong/SF1/03 (H9N2)); assay: as above; settings: remark: other sources report otherwise
[7] = target: T3, M2KGENS peptide conjugated with BSA (influenza A virus, A/Turkey/VA/158512/02 (H7N2)); assay: as above; settings: remark: other sources report otherwise
[8] = target: M2LTGEKS-BSA conjugate (influenza A virus, A/Hong Kong/1074/99 (H9N2)); assay: as above; settings: remark: other sources report otherwise
CM14 (influenza A virus) = assay: ELISA on peptide, Ab 10 µg/ml
NM12 (influenza A virus) = assay: ELISA on peptide, Ab 10 µg/ml
CM15 (influenza A virus) = assay: ELISA on peptide, Ab 10 µg/ml
[9] = target: M2 peptide (influenza A virus, A/Hong Kong/1/68 (H3N2)); assay: ELISA on peptide, Ab 10 µg/ml
NM16 (influenza A virus) = assay: ELISA on peptide, Ab 10 µg/ml
NM17 (influenza A virus) = assay: ELISA on peptide, Ab 10 µg/ml
CM17 (influenza A virus) = assay: ELISA on peptide, Ab 10 µg/ml
NM13 (influenza A virus) = assay: ELISA on peptide, Ab 10 µg/ml
NM15 (influenza A virus) = assay: ELISA on peptide, Ab 10 µg/ml
NM14 (influenza A virus) = assay: ELISA on peptide, Ab 10 µg/ml
CM12 (influenza A virus) = assay: ELISA on peptide, Ab 10 µg/ml
NM11 (influenza A virus) = assay: ELISA on peptide, Ab 10 µg/ml
CM16 (influenza A virus) = assay: ELISA on peptide, Ab 10 µg/ml
CM13 (influenza A virus) = assay: ELISA on peptide, Ab 10 µg/ml
[10] = target: M2DLTGS peptide conjugated with BSA (influenza A virus, A/Hong Kong/485/97 (H5N1)); assay: peptide-BSA ELISA (++ EC50<10^-9M; + 10^-9M<EC50<10^-8M); settings: remark: other sources report otherwise
[11] = target: M2SG peptide conjugated with BSA (influenza A virus, A/swine/Tennessee/25/77 (H1N1)); assay: as above; settings: remark: other sources report otherwise
M12 (influenza A virus) = assay: ELISA on peptide, Ab 10 µg/ml
[12] = target: T4, M2LTGS peptide conjugated with BSA (influenza A virus, A/Hong Kong/156/97 (H5N1)); assay: peptide-BSA ELISA; settings: remark: other sources report otherwise
[13] = target: T1, M2PHTGS peptide conjugated with BSA …; assay: peptide-BSA ELISA; settings: remark: other sources report otherwise
[14] = target: T5, M2HTGEKS peptide conjugated with BSA (influenza A virus, A/chicken/California/1002a/00 (H6N2)); assay: peptide-BSA ELISA; settings: remark: other sources report otherwise
[15] = target: T2, M2GHTGKS peptide conjugated with BSA …; assay: peptide-BSA ELISA; settings: remark: other sources report otherwise
[16] = target: T3, M2KGENS peptide conjugated with BSA …; assay: peptide-BSA ELISA; settings: remark: other sources report otherwise
[17] = target: T6, M2KTGEKS peptide conjugated with BSA (influenza A virus, A/Quail/Arkansas/16309-7/94 (H7N3NSA)); assay: peptide-BSA ELISA; settings: remark: other sources report otherwise
[18] = target: T7, M2LTKGS peptide conjugated with BSA (influenza A virus, A/Hong Kong/542/97 (H5N1)); assay: peptide-BSA ELISA; settings: remark: other sources report otherwise
[19] = target: M2KTGEKS (influenza A virus, A/Quail/Arkansas/16309-7/94 (H7N3NSA)); settings: remark: other sources report otherwise
[20] = target: M2LTGS (influenza A virus, A/Hong Kong/156/97 (H5N1)); settings: remark: other sources report otherwise
[21] = target: M2PHTGS (influenza A virus, A/chicken/HongKong/YU427/03 (H9N2)); settings: remark: other sources report otherwise
[22] = target: M2KGENS (influenza A virus, A/Turkey/VA/158512/02 (H7N2)); settings: remark: other sources report otherwise
[23] = target: M2HTGEKS (influenza A virus, A/chicken/California/1002a/00 (H6N2)); settings: remark: other sources report otherwise
[24] = target: M2LTKGS (influenza A virus, A/Hong Kong/542/97 (H5N1)); settings: remark: other sources report otherwise
[25] = target: M2GHTGKS (influenza A virus, A/chicken/HongKong/SF1/03 (H9N2)); settings: remark: other sources report otherwise
[26] = target: T4, M2LTGS peptide conjugated with BSA …; assay: peptide-BSA ELISA; legend: EC50 > 10^-8M: -; settings: remark: other sources report otherwise
[27] = target: T1, M2PHTGS peptide conjugated with BSA …; assay: peptide-BSA ELISA; legend: EC50 > 10^-8M: -; settings: remark: other sources report otherwise
[28] = target: T5, M2HTGEKS peptide conjugated with BSA …; assay: peptide-BSA ELISA; legend: EC50 > 10^-8M: -; settings: remark: other sources report otherwise
[29] = target: T2, M2GHTGKS peptide conjugated with BSA …; assay: peptide-BSA ELISA; legend: EC50 > 10^-8M: -; settings: remark: other sources report otherwise
[30] = target: T3, M2KGENS peptide conjugated with BSA …; assay: peptide-BSA ELISA; legend: EC50 > 10^-8M: -; settings: remark: other sources report otherwise
[31] = target: T6, M2KTGEKS peptide conjugated with BSA …; assay: peptide-BSA ELISA; legend: EC50 > 10^-8M: -; settings: remark: other sources report otherwise
[32] = target: T7, M2LTKGS peptide conjugated with BSA …; assay: peptide-BSA ELISA; legend: EC50 > 10^-8M: -; settings: remark: other sources report otherwise

B1: L66 (antibody, V domains shown)
VH: EVQLVESGGGVVRPGGSLRLSCAASGFTFDDYGMSWVRQAPGKGLEWVSGINWNGGSTGYADSVKGRFTISRDNAKNSLYLQMNSLRAEDTALYYCARDRVTMVRGVIMDYYGMDVWGQGTTVTVSS
VL: QTVVTQEPSLTVSPRGTVTLTCSSSTGAVTSGYYPGWFQLKPGQAPMSLIYSARKKHSWTPARFSGSLLGGKAALTLSGVQPEDEAEYYCLLYYGGAYVFGTGTKVTVLG
EC50 [1]: < 1 nM
EC50 [2]: 1 to 10 nM
EC50 [3]: < 1 nM
EC50 [4]: < 1 nM
EC50 [5]: < 1 nM
EC50 [6]: < 1 nM
EC50 [7]: < 1 nM
EC50 [8]: < 1 nM
ELISA(OD450) (CM14 (influenza A virus)): 0.08 OD450
ELISA(OD450) (NM12 (influenza A virus)): 0.12 OD450
ELISA(OD450) (CM15 (influenza A virus)): 0.09 OD450
ELISA(OD450) [9]: 0.51 OD450
ELISA(OD450) (NM16 (influenza A virus)): 1.04 OD450
ELISA(OD450) (NM17 (influenza A virus)): 0.99 OD450
ELISA(OD450) (CM17 (influenza A virus)): 0.12 OD450
ELISA(OD450) (NM13 (influenza A virus)): 0.13 OD450
ELISA(OD450) (NM15 (influenza A virus)): 0.2 OD450
ELISA(OD450) (NM14 (influenza A virus)): 0.22 OD450
ELISA(OD450) (CM12 (influenza A virus)): 0.08 OD450
ELISA(OD450) (NM11 (influenza A virus)): 0.09 OD450
ELISA(OD450) (CM16 (influenza A virus)): 0.09 OD450
ELISA(OD450) (CM13 (influenza A virus)): 0.08 OD450

B2: C40G1 (antibody, V domains shown)
VH: QLQLQESGPGLVKPSETLSLTCTVSGGSISSSFYYCGWIRQPPGKGLEWIGSIYYRGSTYYNPSLKSRVTISVDTSKNQFSLKLSSVTAADTAVYYCARRVTMVRGVKGDYFDYWGQGTLVTVSS
VL: DIQMTQSPSSLSASVGDRVTITCRASQGISSWLAWYQQKPEKVPKSLIYAASSLQSGVPSRFSGSGSGTDFTLTISSLQPEDFATYYCQQYNYYPLTFGGGTKVEIKR
EC50 [10]: 1 to 10 nM
EC50 [2]: < 1 nM
EC50 [11]: < 1 nM
EC50 [5]: < 1 nM
ELISA(OD450) (CM14 (influenza A virus)): 0.1 OD450
ELISA(OD450) (NM12 (influenza A virus)): 0.12 OD450
ELISA(OD450) (CM15 (influenza A virus)): 0.11 OD450
ELISA(OD450) (CM17 (influenza A virus)): 2.78 OD450
ELISA(OD450) (M12 (influenza A virus)): 2.71 OD450
ELISA(OD450) (NM13 (influenza A virus)): 2.41 OD450
ELISA(OD450) (NM14 (influenza A virus)): 2.49 OD450
ELISA(OD450) (CM12 (influenza A virus)): 0.1 OD450
ELISA(OD450) (NM11 (influenza A virus)): 0.31 OD450
ELISA(OD450) (CM16 (influenza A virus)): 0.76 OD450
ELISA(OD450) (CM13 (influenza A virus)): 0.11 OD450
EC50 [12]: > 10 nM
EC50 [13]: > 10 nM
EC50 [14]: > 10 nM
EC50 [15]: > 10 nM
EC50 [16]: > 10 nM
EC50 [17]: > 10 nM
EC50 [18]: > 10 nM
% of O.D. on M2 (SEQ ID NO:1) [19]: < 10%
% of O.D. on M2 (SEQ ID NO:1) [20]: < 10%
% of O.D. on M2 (SEQ ID NO:1) [21]: < 10%
% of O.D. on M2 (SEQ ID NO:1) [22]: < 10%
% of O.D. on M2 (SEQ ID NO:1) [23]: < 10%
% of O.D. on M2 (SEQ ID NO:1) [24]: < 10%
% of O.D. on M2 (SEQ ID NO:1) [25]: < 10%
EC50 [26]: > 10 nM
EC50 [27]: > 10 nM
EC50 [28]: > 10 nM
EC50 [29]: > 10 nM
EC50 [30]: > 10 nM
EC50 [31]: > 10 nM
EC50 [32]: > 10 nM
